From US12630618 (GEORGIA TECH RESEARCH, dated 2026) come the findings set out here.

This assay has as its target T1, human myocilin OLF (hMyoc-OLF), cleaved from its fusion tag (human, UniProt Q99972 244-503, limits assumed).
T1 construct: In Western blots the protein is denatured; also called hOLF; cleaved human myocilin OLF
T1 sequence: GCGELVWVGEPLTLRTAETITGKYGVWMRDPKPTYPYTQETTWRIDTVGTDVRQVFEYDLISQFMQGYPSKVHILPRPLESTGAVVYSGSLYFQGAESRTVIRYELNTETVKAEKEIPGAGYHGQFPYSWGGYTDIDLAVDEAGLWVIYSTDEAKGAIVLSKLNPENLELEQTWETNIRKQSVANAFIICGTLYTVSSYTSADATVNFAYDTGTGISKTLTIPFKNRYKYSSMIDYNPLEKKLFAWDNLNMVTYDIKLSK
The experiment in a line: Western blot, denatured hMyoc-OLF, IgG. A general note: Immunoblotting shows a protein as a band on a membrane.

B1: Monoclonal Antibody OLF2 (antibody, V domains shown)
VH: DVKLVESGGGLVKPGGSLKLSCAASGFTFSSYAMSWVRQTPDKRLEWVATISSGGSYTYYPDSVKGRFTISRDNAKNTLYLQMSSLKSEDTAMYYCARLGGGIFAYWGQGTLVTVSA
VL: DVLMTQTPLSLPVSLGDQASISCRSSQSIVHSNGNTYLEWYLQKPGQSPKLLIYKVSNRFSGVPDRFSGSGSGTDFTLKISRVEAEDLGVYYCFQGSHVPLTFGAGTKLEIKR
notes: also called anti-OLF2
For B1, the binding result is “binds”.
